B1: Hairpin Ribozyme (parent)
chain: GUCCUCUUUCACGUGCGCGUGAAAGAGAGAAGUGAACCAGAGAAACACACGUUGUGGUAUAUUACCUGGUA

Variants of: B1
Experiment: self-cleavage, relative activity (ratio to wild type); higher = more cleavage; co-transcriptional

Row | Variant | self-cleavage
1 | GUCCUCUUUCACGUGCGCGUGAAAGAGAGAAGUGAACCAGAGAAACUAACGUUGUGGUAUAUUACCUGGUA [A47U C48A] | 0.157
2 | GUCCUCUUUCACGUGCGCGUGAAAGAGAGAAGUGAACCAGAGAAACUUACGUUGUGGUAUAUUACCUGGUA [A47U C48U] | 0.112
3 | GUCCUCUUUCACGUGCGCGUGAAAGAGAGAAGUGAACCAGAGAAACAAACGUUGUGGUGUAUUACCUGGUA [C48A A59G] | 0.219
4 | GUCCUCUUUCACGUGCGCGUGAAAGAGAGAAGUGAACCAGAGAAACAAACGUUGUGGUUUAUUACCUGGUA [C48A A59U] | 0.121
5 | GUCCUCUUUCACGUGCGCGUGAAAGAGAGAAGUGAACCAGAGAAACAAACGUUGUGGUCUAUUACCUGGUA [C48A A59C] | 0.139
6 | GUCCUCUUUCACGUGCGCGUGAAAGAGAGAAGUGAACCAGAGAAACUCACGUUGUGGUAUAUAACCUGGUA [A47U U63A] | 0.114
7 | GUCCUCUUUCACGUGCGCGUGAAAGAGAGAAGUGAACCAGAGAAACUCACGUUGUGGUAUAUGACCUGGUA [A47U U63G] | 0.0673
8 | GUCCUCUUUCACGUGCGCGUGAAAGAGAGAAGUGAACCAGAGAAACUCACGUUGUGGGAUAUUACCUGGUA [A47U U58G] | 0.137
9 | GUCCUCUUUCACGUGCGCGUGAAAGAGAGAAGUGAACCAGAGAAACUCACGUUGUGGCAUAUUACCUGGUA [A47U U58C] | 0.133
10 | GUCCUCUUUCACGUGCGCGUGAAAGAGAGAAGUGAACCAGAGAAACUCACGUUGUGGUAUGUUACCUGGUA [A47U A61G] | 0.147
11 | GUCCUCUUUCACGUGCGCGUGAAAGAGAGAAGUGAACCAGAGAAACUCACGUUGUGGUAUCUUACCUGGUA [A47U A61C] | 0.243
12 | GUCCUCUUUCACGUGCGCGUGAAAGAGAGAAGUGAACCAGAGAAACGCACGUAGUGGUAUAUUACCUGGUA [A47G U53A] | 0.176
13 | GUCCUCUUUCACGUGCGCGUGAAAGAGAGAAGUGAACCAGAGAAACGCACGUCGUGGUAUAUUACCUGGUA [A47G U53C] | 0
14 | GUCCUCUUUCACGUGCGCGUGAAAGAGAGAAGUGAACCAGAGAAACUCGCGUUGUGGUAUAUUACCUGGUA [A47U A49G] | 0.161
15 | GUCCUCUUUCACGUGCGCGUGAAAGAGAGAAGUGAACCAGAGAAACUCACGUGGUGGUAUAUUACCUGGUA [A47U U53G] | 0.108
16 | GUCCUCUUUCACGUGCGCGUGAAAGAGAGAAGUGAACCAGAGAAACGCACGUUGUUGUAUAUUACCUGGUA [A47G G56U] | 0.169
17 | GUCCUCUUUCACGUGCGCGUGAAAGAGAGAAGUGAACCAGAGAAACAGACGUUGAGGUAUAUUACCUGGUA [C48G U55A] | 0.148
18 | GUCCUCUUUCACGUGCGCGUGAAAGAGAGAAGUGAACCAGAGAAACGCACGUUGUGGUAUAUUACCUGAUA [A47G G69A] | 0.0811
19 | GUCCUCUUUCACGUGCGCGUGAAAGAGAGAAGUGAACCAGAGAAACGCACGUUGUGUUAUAUUACCUGGUA [A47G G57U] | 0.179

Row | Variant | self-cleavage
20 | GUCCUCUUUCACGUGCGCGUGAAAGAGAGAAGUGAACCAGAGAAACAGACGUUGUGGUAUAUUACCUGGAA [C48G U70A] | 0.144
21 | GUCCUCUUUCACGUGCGCGUGAAAGAGAGAAGUGAACCAGAGAAACGCACAUUGUGGUAUAUUACCUGGUA [A47G G51A] | 0.15
22 | GUCCUCUUUCACGUGCGCGUGAAAGAGAGAAGUGAACCAGAGAAACAAACGUUGUGGUAUAUUUCCUGGUA [C48A A64U] | 0.0412
23 | GUCCUCUUUCACGUGCGCGUGAAAGAGAGAAGUGAACCAGAGAAACGCACGAUGUGGUAUAUUACCUGGUA [A47G U52A] | 0.0547
24 | GUCCUCUUUCACGUGCGCGUGAAAGAGAGAAGUGAACCAGAGAAACAGACGUUGUGGUAUCUUACCUGGUA [C48G A61C] | 0.0868
25 | GUCCUCUUUCACGUGCGCGUGAAAGAGAGAAGUGAACCAGAGAAACAGACGUUGUGGUAUGUUACCUGGUA [C48G A61G] | 0.131
26 | GUCCUCUUUCACGUGCGCGUGAAAGAGAGAAGUGAACCAGAGAAACAGACGUUGUGGUAUAUUACCUGGUU [C48G A71U] | 0.14
27 | GUCCUCUUUCACGUGCGCGUGAAAGAGAGAAGUGAACCAGAGAAACAGACGUUGUGGUAUAUUACCUGGUC [C48G A71C] | 0.231
28 | GUCCUCUUUCACGUGCGCGUGAAAGAGAGAAGUGAACCAGAGAAACAAACGUUGUGGUAUAUUACGUGGUA [C48A C66G] | 0.245
29 | GUCCUCUUUCACGUGCGCGUGAAAGAGAGAAGUGAACCAGAGAAACAAACGUUGUGGUAUAUUACUUGGUA [C48A C66U] | 0.202
30 | GUCCUCUUUCACGUGCGCGUGAAAGAGAGAAGUGAACCAGAGAAACGCACGUUGUGGUAUAUUACCAGGUA [A47G U67A] | 0.136
31 | GUCCUCUUUCACGUGCGCGUGAAAGAGAGAAGUGAACCAGAGAAACGCACGUUGUGGUAUAUUACCCGGUA [A47G U67C] | 0.129
32 | GUCCUCUUUCACGUGCGCGUGAAAGAGAGAAGUGAACCAGAGAAACAAACGAUGUGGUAUAUUACCUGGUA [C48A U52A] | 0.233
33 | GUCCUCUUUCACGUGCGCGUGAAAGAGAGAAGUGAACCAGAGAAACUCACGUUGUGGUAUAGUACCUGGUA [A47U U62G] | 0.158
34 | GUCCUCUUUCACGUGCGCGUGAAAGAGAGAAGUGAACCAGAGAAACGCACGUUGUGGUAUAUUACCUUGUA [A47G G68U] | 0.104
35 | GUCCUCUUUCACGUGCGCGUGAAAGAGAGAAGUGAACCAGAGAAACGCACGUUGUGGUAUAUUACCUCGUA [A47G G68C] | 0.143
36 | GUCCUCUUUCACGUGCGCGUGAAAGAGAGAAGUGAACCAGAGAAACAGACGCUGUGGUAUAUUACCUGGUA [C48G U52C] | 0.218
37 | GUCCUCUUUCACGUGCGCGUGAAAGAGAGAAGUGAACCAGAGAAACAGACGAUGUGGUAUAUUACCUGGUA [C48G U52A] | 0.135
38 | GUCCUCUUUCACGUGCGCGUGAAAGAGAGAAGUGAACCAGAGAAACAAACGUUGUGGUAUCUUACCUGGUA [C48A A61C] | 0.201

Reference: the RNAGym collection of RNA variant scans (doi:10.7554/elife.80360)
